Test results: patent publication US20190345534

These substances were tested on GzmB peptide substrate AIEFDSGc on PEG-coated iron oxide nanoparticles (GzmB-sensing synthetic biomarker).

Sequence of Factor I (Sigma) (P05156 19-583): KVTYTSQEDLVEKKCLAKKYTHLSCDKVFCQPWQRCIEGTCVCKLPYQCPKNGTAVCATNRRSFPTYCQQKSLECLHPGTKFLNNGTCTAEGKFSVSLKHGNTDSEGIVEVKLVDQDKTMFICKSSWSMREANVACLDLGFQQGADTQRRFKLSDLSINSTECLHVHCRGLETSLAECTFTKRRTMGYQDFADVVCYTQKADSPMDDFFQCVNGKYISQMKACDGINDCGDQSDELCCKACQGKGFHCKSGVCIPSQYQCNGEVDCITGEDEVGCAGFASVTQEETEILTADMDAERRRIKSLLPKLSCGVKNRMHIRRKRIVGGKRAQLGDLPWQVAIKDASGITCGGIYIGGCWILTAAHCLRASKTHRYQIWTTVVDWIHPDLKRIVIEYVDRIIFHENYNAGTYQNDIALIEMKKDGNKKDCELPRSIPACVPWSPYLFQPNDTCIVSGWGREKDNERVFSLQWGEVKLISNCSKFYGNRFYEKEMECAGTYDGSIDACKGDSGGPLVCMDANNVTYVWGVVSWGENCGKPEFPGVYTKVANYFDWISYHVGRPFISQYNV
Sequence of MASP2 (Biomatik) (O00187 16-686): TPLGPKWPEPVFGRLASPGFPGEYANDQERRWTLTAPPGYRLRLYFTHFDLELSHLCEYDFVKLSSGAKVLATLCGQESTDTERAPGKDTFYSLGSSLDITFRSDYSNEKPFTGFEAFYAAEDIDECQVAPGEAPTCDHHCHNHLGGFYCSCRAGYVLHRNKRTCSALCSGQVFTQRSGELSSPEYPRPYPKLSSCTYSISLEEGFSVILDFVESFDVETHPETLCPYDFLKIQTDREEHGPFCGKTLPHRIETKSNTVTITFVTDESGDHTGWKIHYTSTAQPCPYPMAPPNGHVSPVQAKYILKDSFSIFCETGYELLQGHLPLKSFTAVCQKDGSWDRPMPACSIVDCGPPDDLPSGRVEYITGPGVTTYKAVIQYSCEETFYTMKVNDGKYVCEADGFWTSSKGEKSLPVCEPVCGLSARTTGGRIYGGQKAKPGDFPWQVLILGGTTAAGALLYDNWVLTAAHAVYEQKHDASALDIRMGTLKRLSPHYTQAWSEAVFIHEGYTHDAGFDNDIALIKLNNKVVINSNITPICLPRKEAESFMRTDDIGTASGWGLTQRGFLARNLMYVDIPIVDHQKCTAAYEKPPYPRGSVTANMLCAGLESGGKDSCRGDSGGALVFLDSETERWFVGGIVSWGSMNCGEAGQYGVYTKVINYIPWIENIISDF
Sequence of Factor D (Sigma) (P00746 26-253): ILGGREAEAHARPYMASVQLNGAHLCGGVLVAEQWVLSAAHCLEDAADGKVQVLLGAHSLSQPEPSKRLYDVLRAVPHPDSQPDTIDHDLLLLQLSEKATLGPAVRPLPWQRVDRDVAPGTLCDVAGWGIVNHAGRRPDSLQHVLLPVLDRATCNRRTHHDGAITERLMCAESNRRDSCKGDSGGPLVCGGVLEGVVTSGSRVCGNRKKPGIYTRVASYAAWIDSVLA

Substance	fluorescent intensity (in vitro protease cleavage assay)
Factor D (Sigma)	Increases in fluorescent intensity were observed only in samples containing recombinant GzmB
Factor I (Sigma)	Increases in fluorescent intensity were observed only in samples containing recombinant GzmB
MASP2 (Biomatik)	Increases in fluorescent intensity were observed only in samples containing recombinant GzmB
human thrombin (HaemTech)	Increases in fluorescent intensity were observed only in samples containing recombinant GzmB
mouse thrombin (HaemTech)	Increases in fluorescent intensity were observed only in samples containing recombinant GzmB
